# Measured values as given in patent publication US20200324001A1 (NATIONAL UNIVERSITY CORPORATION OKAYAMA UNIVERSITY, published 2020).
# Assays:
# [1] = target: T1, mesothelin (MSLN) expressed on human cancer cell lines (human, UniProt Q13421 296-598); assay: flow cytometry on CFPAC-1 cells; grade of MFI ratio to control (+ = 4.9-1.5)
# T1 construct: whole, on cells; also called MSLN expressed in cancer cells
# Method: (§1) A total of 28 cell lines were used for FCM analysis. The “MSLN exp ref” column indicates positive MSLN expression shown in previous studies. The “MSLN exp FCM” column indicates the ratio of the mean fluorescence intensity […] of the control; a ratio of 5 or more was indicated as “++,” a ratio of 4.9-1.5 was indicated as “+,” and a ratio of 1.4 or less is indicated as “−.”
# (§2) The human cancer cell lines (Table 1) were treated with Cell Dissociation Buffer, enzyme-free, PBS (Gibco/Life Technologies, CA, USA) and harvested as single-cell suspensions. 1×10⁶ cells were washed once with cold PBS containing 2% FBS and 1 mM EDTA, and a full-length anti-human MSLN antibody, each anti-human MSLN cp3-scFv clone, or each His-tag scFv clone was used as a primary antibody. For the full-length anti-human MSLN antibody, an anti-KLH antibody (IgG2b isotype control) was used as a negative control, and an Alexa Fluor 488-labeled goat anti-mouse IgG antibody was used as a secondary antibody. […] The mean value of the fluorescence intensity (excluding the dead cell population) was obtained using BD FACSDiva software and calculated using Microsoft Excel.
# [2] = target: T1, mesothelin (MSLN) expressed on human …; assay: flow cytometry on SiHa cells; grade of MFI ratio to control (++ = 5 or more)
# Method: as §1, §2
# [3] = target: T2, human recombinant mesothelin (r-MSLN) (human, UniProt Q13421 296-598, limits assumed); assay: BLI (BLItz, AR2G biosensor), unlabeled scFv against r-MSLN
# T2 construct: also called recombinant MSLN; antigen r-MSLN
# T2 sequence (Q13421 other isoform, or with tags, fused parts or gaps limits assumed): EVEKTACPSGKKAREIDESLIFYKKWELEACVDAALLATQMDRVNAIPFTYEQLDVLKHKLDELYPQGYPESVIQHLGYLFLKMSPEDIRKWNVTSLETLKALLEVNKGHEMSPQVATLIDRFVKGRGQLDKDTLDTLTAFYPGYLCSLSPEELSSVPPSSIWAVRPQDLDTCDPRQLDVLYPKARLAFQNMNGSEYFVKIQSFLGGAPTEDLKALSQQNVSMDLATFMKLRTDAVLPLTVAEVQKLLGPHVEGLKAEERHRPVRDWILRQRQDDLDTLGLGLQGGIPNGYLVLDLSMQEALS
# [4] = target: T1, mesothelin (MSLN) expressed on human …; assay: flow cytometry on HEC-1-A cells; grade of MFI ratio to control (+ = 4.9-1.5)
# Method: as §1, §2
# [5] = target: T1, mesothelin (MSLN) expressed on human …; assay: flow cytometry on SK-OV-3 cells; grade of MFI ratio to control (+ = 4.9-1.5)
# Method: as §1, §2
# [6] = target: T1, mesothelin (MSLN) expressed on human …; assay: flow cytometry on BxPC-3 cells; grade of MFI ratio to control (+ = 4.9-1.5)
# Method: as §1, §2
# [7] = target: T1, mesothelin (MSLN) expressed on human …; assay: flow cytometry on NCI-H596 cells; grade of MFI ratio to control (+ = 4.9-1.5)
# Method: as §1, §2
# [8] = target: T1, mesothelin (MSLN) expressed on human …; assay: flow cytometry on NCI-H226 cells; grade of MFI ratio to control (++ = 5 or more)
# Method: as §1, §2
# [9] = target: T1, mesothelin (MSLN) expressed on human …; assay: flow cytometry on NCI-N87 cells; grade of MFI ratio to control (++ = 5 or more)
# Method: as §1, §2
# [10] = target: T1, mesothelin (MSLN) expressed on human …; assay: flow cytometry on MKN74 cells; grade of MFI ratio to control (+ = 4.9-1.5)
# Method: as §1, §2
# [11] = target: T1, mesothelin (MSLN) expressed on human …; assay: flow cytometry on 22Rv1 cells; grade of MFI ratio to control (+ = 4.9-1.5)
# Method: as §1, §2
# [12] = target: T1, mesothelin (MSLN) expressed on human …; assay: flow cytometry on Hela cells; grade of MFI ratio to control (+ = 4.9-1.5)
# Method: as §1, §2
# [13] = target: T1, mesothelin (MSLN) expressed on human …; assay: flow cytometry on MKN45 cells; grade of MFI ratio to control (+ = 4.9-1.5)
# Method: as §1, §2
# [14] = target: T1, mesothelin (MSLN) expressed on human …; assay: flow cytometry on OVCAR-3 cells; grade of MFI ratio to control (++ = 5 or more)
# Method: as §1, §2
# [15] = target: T2, human recombinant mesothelin (r-MSLN); assay: BLI (BLItz, AR2G biosensor), scFv after 89Zr labeling against r-MSLN
# Method: DFO modification to each His-tag scFv was performed by incubation in bicarbonate buffer at a pH of 9.0 at 37° C. for 1 hour so that the ratio of dissolved chelating agent deferoxamine (p-SCN-Bn-DFO) to His-tag scFv was 3:1. ⁸⁹Zr was produced with a cyclotron (HM-12 cyclotron, Sumitomo Heavy Industries Ltd., Tokyo, Japan), and ⁸⁹Zr-oxalate was obtained. ⁸⁹Zr-oxalate, Na₂CO₃ (2M), and HEPES (0.5 M) were mixed so that the ratio of ⁸⁹Zr-oxalate to Na₂CO₃ (2M) to HEPES (0.5 M) was 2:1:10 and adjusted to a pH of 7.0, and the mixture was mixed with each DFO-modified His-tag scFv clone in which the solvent was replaced with gentisic acid physiological saline (5 mg/mL), followed by incubation at 37° C. for 30 minutes, thereby obtaining ⁸⁹Zr-DFO-scFvs. Unbound ⁸⁹Zr was removed by ultrafiltration using an Amicon Ultra 10K centrifugal filter. The radiochemical purity was determined by thin-layer chromatography-autoradiography (TLC-ARG) and HPLC (LC-20, Shimadzu Co., Kyoto, Japan). […] The in vitro stability of the radiolabeled scFvs after incubation in 50% human plasma/PBS at 37° C. for 6 hours was also analyzed. […] Immediately after mixing and after 6-hour incubation, a portion of the mixture of the radiolabeled scFv and the plasma was measured at 230 nm by HPLC, and the radioactivity was measured with a GABI star (Raytest, Straubenhardt, Germany). […]
# [16] = target: T2, human recombinant mesothelin (r-MSLN); assay: BLI (BLItz, AR2G biosensor), scFv after DFO modification against r-MSLN
# T1 sequence (Q13421 other isoform, or with tags, fused parts or gaps limits assumed): as above
binder,measurement,setting,value
"anti-human MSLN His-tag scFv clone H1a050 (scFv, Unlabeled His-tag scFv expressed in CHO cells; also called His-tag scFv H1a050; His-Tag-scFv H1a050) scFv: SYELTQPPSVSVSPGQTARITCSGNALPKQYAYWYQQKPGQAPVLMIYKDSERPSGIPERFSGSSSGTTVTLTISGVQAEDEADYYCQSADSSHTYKVFGGGTKLTVLGGGGSGGGGSGGGGSGGGGSEVQLVQSGGGLVQPDRSLRLSCAASGFTFDDYAMHWVRQAPGKGLEWVSGISWNSGSIGYADSVKGRFTISRDNAKNSLYLQMNSLRAEDTALYYCAKDLGSYYGSGSGMDVWGQGTTVTVSSGG",ratio of MFI of scFv clone H1a050 to MFI of control (flow cytometry),[1],1.5 to 4.9 ratio
same,ratio of MFI of scFv clone H1a050 to MFI of control (flow cytometry),[2],≥ 5 ratio
same,Kd,[3],4.68 nM
same,ratio of MFI of scFv clone H1a050 to MFI of control (flow cytometry),[4],1.5 to 4.9 ratio
same,ratio of MFI of scFv clone H1a050 to MFI of control (flow cytometry),[5],1.5 to 4.9 ratio
same,ratio of MFI of scFv clone H1a050 to MFI of control (flow cytometry),[6],1.5 to 4.9 ratio
same,ratio of MFI of scFv clone H1a050 to MFI of control (flow cytometry),[7],1.5 to 4.9 ratio
same,ratio of MFI of scFv clone H1a050 to MFI of control (flow cytometry),[8],≥ 5 ratio
same,ratio of MFI of scFv clone H1a050 to MFI of control (flow cytometry),[9],≥ 5 ratio
same,ratio of MFI of scFv clone H1a050 to MFI of control (flow cytometry),[10],1.5 to 4.9 ratio
same,ratio of MFI of scFv clone H1a050 to MFI of control (flow cytometry),[11],1.5 to 4.9 ratio
same,ratio of MFI of scFv clone H1a050 to MFI of control (flow cytometry),[12],1.5 to 4.9 ratio
same,ratio of MFI of scFv clone H1a050 to MFI of control (flow cytometry),[13],1.5 to 4.9 ratio
same,ratio of MFI of scFv clone H1a050 to MFI of control (flow cytometry),[14],≥ 5 ratio
"89Zr-DFO-scFv H1a050 (scFv, deferoxamine (p-SCN-Bn-DFO) conjugated and loaded with 89Zr; sites not stated, Same polypeptide as H1a050 His-tag scFv, DFO-modified and 89Zr-labeled; also called H1a050 after 89Zr labeling; 89Zr-labeled DFO-His-tag-scFv H1a050) scFv: SYELTQPPSVSVSPGQTARITCSGNALPKQYAYWYQQKPGQAPVLMIYKDSERPSGIPERFSGSSSGTTVTLTISGVQAEDEADYYCQSADSSHTYKVFGGGTKLTVLGGGGSGGGGSGGGGSGGGGSEVQLVQSGGGLVQPDRSLRLSCAASGFTFDDYAMHWVRQAPGKGLEWVSGISWNSGSIGYADSVKGRFTISRDNAKNSLYLQMNSLRAEDTALYYCAKDLGSYYGSGSGMDVWGQGTTVTVSSGG",Kd,[15],46.2 nM
"DFO-modified His-tag scFv H1a050 (scFv, deferoxamine (p-SCN-Bn-DFO) conjugated, chelator to scFv ratio 3:1 in the reaction; sites not stated, Same polypeptide as H1a050 His-tag scFv, carrying the DFO chelator; also called H1a050 after DFO modification; DFO-His-tag-scFv H1a050) scFv: SYELTQPPSVSVSPGQTARITCSGNALPKQYAYWYQQKPGQAPVLMIYKDSERPSGIPERFSGSSSGTTVTLTISGVQAEDEADYYCQSADSSHTYKVFGGGTKLTVLGGGGSGGGGSGGGGSGGGGSEVQLVQSGGGLVQPDRSLRLSCAASGFTFDDYAMHWVRQAPGKGLEWVSGISWNSGSIGYADSVKGRFTISRDNAKNSLYLQMNSLRAEDTALYYCAKDLGSYYGSGSGMDVWGQGTTVTVSSGG",Kd,[16],3.38 nM
"anti-human MSLN His-tag scFv clone H2a064 (scFv, Unlabeled His-tag scFv expressed in CHO cells; also called His-tag scFv H2a064; His-Tag-scFv H2a064) scFv: SYELTQPPSVSVSPGQTARITCSGDALPKHYASWYQQKPGQAPVLLIYKDTERPSGIPERFSGSSSGTTVTLTISGVQAEDEADYYCQSADSSVTVVFGGGTKLTVLGGGGSGGGGSGGGGSGGGGSQVQLVQSGGGLVQPGRSLRLSCAASGFTFDDYAMHWVRQAPGKGLEWVSGISWNSGSIGYADSVKGRFTISRDNAKNSLYLQMNSLRAEDTALYYCAKDIGSSGWYGAFDIWGQGTTVTVSSGG",Kd,[3],59.6 nM
"89Zr-DFO-scFv H2a064 (scFv, deferoxamine (p-SCN-Bn-DFO) conjugated and loaded with 89Zr; sites not stated, Same polypeptide as H2a064 His-tag scFv, DFO-modified and 89Zr-labeled; also called H2a064 after 89Zr labeling; 89Zr-labeled DFO-His-tag-scFv H2a064) scFv: SYELTQPPSVSVSPGQTARITCSGDALPKHYASWYQQKPGQAPVLLIYKDTERPSGIPERFSGSSSGTTVTLTISGVQAEDEADYYCQSADSSVTVVFGGGTKLTVLGGGGSGGGGSGGGGSGGGGSQVQLVQSGGGLVQPGRSLRLSCAASGFTFDDYAMHWVRQAPGKGLEWVSGISWNSGSIGYADSVKGRFTISRDNAKNSLYLQMNSLRAEDTALYYCAKDIGSSGWYGAFDIWGQGTTVTVSSGG",Kd,[15],78.2 nM
"DFO-modified His-tag scFv H2a064 (scFv, deferoxamine (p-SCN-Bn-DFO) conjugated, chelator to scFv ratio 3:1 in the reaction; sites not stated, Same polypeptide as H2a064 His-tag scFv, carrying the DFO chelator; also called H2a064 after DFO modification; DFO-His-tag-scFv H2a064) scFv: SYELTQPPSVSVSPGQTARITCSGDALPKHYASWYQQKPGQAPVLLIYKDTERPSGIPERFSGSSSGTTVTLTISGVQAEDEADYYCQSADSSVTVVFGGGTKLTVLGGGGSGGGGSGGGGSGGGGSQVQLVQSGGGLVQPGRSLRLSCAASGFTFDDYAMHWVRQAPGKGLEWVSGISWNSGSIGYADSVKGRFTISRDNAKNSLYLQMNSLRAEDTALYYCAKDIGSSGWYGAFDIWGQGTTVTVSSGG",Kd,[16],114 nM
